Assay results published in paper PMC8958351, “Ubiquitylation of cyclin C by HACE1 regulates cisplatin‐associated sensitivity in gastric cancer” (Clinical and Translational Medicine, 2022).

Columns and labels:
Assay in all cases: pull-down; GST pull-down; purified GST-HACE1 proteins incubated with purified cyclin C-MBP-His for 6 h at 4°C in 50 mM Tris-Cl, 200 mM NaCl, 1 mM EDTA, 1% NP-40, 1 mM DTT, 10 mM MgCl2, 10 μg/ml BSA, pH 8.0; GST pulled down, cyclin C immunoblotted
Settings in all cases: both partners purified
[1] = target: T1, GST‐HACE1 truncation, amino acids 258–909 (human, UniProt Q8IYU2 258-909)
T1 sequence (looked up): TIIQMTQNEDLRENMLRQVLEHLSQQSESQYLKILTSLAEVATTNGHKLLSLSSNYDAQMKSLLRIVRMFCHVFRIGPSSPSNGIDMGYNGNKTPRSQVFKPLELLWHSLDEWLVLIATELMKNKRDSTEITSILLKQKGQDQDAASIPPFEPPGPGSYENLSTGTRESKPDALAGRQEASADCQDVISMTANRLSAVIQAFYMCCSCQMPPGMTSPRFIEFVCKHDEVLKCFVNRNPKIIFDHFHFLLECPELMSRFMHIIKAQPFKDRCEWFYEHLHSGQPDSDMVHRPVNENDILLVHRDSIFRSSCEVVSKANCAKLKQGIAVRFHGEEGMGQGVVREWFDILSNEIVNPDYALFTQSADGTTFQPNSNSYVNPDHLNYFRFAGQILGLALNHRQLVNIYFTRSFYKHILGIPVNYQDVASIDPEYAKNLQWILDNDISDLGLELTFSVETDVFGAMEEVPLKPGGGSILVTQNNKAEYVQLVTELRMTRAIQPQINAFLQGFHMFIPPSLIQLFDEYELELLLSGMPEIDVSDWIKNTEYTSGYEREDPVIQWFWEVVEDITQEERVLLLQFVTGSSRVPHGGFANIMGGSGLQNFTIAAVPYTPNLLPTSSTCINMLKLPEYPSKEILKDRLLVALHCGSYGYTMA

[2] = target: T2, GST‐HACE1 (human, UniProt Q8IYU2 1-909)
T2 construct: HACE1, human; the cDNA encoding HACE1 cloned into pGEX4T-1; also called recombinant glutathione (GST)‐tagged HACE1; GST‐fused HACE1
T2 sequence (looked up): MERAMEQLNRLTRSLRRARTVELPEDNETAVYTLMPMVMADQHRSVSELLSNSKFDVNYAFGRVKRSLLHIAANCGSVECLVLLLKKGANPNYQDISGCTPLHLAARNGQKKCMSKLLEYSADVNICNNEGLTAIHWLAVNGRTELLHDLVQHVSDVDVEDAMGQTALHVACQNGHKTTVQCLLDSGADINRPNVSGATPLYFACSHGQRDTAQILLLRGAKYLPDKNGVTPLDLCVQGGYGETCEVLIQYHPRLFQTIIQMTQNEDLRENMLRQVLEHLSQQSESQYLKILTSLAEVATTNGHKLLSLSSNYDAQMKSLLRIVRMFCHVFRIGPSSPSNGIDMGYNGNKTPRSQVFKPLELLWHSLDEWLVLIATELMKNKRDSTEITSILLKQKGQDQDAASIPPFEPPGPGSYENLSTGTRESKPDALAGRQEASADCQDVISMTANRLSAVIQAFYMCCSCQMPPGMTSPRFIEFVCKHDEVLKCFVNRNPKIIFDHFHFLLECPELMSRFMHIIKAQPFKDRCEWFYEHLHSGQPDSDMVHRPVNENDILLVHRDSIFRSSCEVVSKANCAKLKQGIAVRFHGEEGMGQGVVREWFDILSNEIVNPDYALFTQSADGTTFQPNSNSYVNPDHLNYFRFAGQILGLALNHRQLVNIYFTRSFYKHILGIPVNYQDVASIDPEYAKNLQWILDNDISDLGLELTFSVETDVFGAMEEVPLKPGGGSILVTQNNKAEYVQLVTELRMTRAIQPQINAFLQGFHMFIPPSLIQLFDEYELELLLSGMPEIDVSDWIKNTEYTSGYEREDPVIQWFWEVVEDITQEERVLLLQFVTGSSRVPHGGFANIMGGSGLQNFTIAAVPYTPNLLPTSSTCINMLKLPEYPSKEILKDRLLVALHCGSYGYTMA

[3] = target: T3, GST‐HACE1 truncation, amino acids 547–909 (human, UniProt Q8IYU2 547-909)
T3 sequence (looked up): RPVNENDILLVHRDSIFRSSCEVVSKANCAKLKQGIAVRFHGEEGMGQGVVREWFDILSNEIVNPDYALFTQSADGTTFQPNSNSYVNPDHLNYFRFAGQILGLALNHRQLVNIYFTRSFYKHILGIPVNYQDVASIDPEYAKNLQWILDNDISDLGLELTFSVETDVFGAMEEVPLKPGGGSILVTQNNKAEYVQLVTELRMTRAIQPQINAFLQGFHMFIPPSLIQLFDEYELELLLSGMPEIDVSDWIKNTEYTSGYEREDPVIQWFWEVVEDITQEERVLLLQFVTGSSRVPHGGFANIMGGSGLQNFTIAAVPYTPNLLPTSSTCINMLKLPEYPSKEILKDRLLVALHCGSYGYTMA

[4] = target: T4, GST‐HACE1 truncation, amino acids 1–546 (human, UniProt Q8IYU2 1-546)
T4 sequence (looked up): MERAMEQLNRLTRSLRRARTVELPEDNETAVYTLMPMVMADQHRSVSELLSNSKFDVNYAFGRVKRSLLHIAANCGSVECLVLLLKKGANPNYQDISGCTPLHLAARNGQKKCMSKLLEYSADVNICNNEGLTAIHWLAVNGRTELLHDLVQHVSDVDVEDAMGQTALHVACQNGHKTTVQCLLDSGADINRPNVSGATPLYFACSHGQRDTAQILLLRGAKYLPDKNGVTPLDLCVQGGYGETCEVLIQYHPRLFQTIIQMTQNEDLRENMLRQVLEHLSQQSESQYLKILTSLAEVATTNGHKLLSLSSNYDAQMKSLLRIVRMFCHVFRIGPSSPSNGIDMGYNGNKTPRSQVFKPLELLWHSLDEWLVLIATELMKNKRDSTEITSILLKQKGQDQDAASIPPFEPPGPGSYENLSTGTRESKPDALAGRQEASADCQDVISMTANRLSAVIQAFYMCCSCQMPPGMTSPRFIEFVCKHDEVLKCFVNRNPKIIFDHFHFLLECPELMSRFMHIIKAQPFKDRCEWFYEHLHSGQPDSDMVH

Measured: binding result

B1: MBP‐His‐tagged cyclin C (natural protein, human)
chain: MAGNFWQSSHYLQWILDKQDLLKERQKDLKFLSEEEYWKLQIFFTNVIQALGEHLKLRQQVIATATVYFKRFYARYSLKSIDPVLMAPTCVFLASKVEEFGVVSNTRLIAAATSVLKTRFSYAFPKEFPYRMNHILECEFYLLELMDCCLIVYHPYRPLLQYVQDMGQEDMLLPLAWRIVNDTYRTDLCLLYPPFMIALACLHVACVVQQKDARQWFAELSVDMEKILEIIRVILKLYEQWKNFDERKEMATILSKMPKPKPPPNSEGEQGPNGSQNSSYSQS
notes: Cyclin C, human; the cDNA of CCNC cloned into pSJ8 (pET21a derivative, MBP-His fusion vector); also called cyclin C‐MBP‐His; source: Escherichia coli BL21, purified (Ni‐NTA agarose beads)
binds: all assays above
